Source: patent publication US10428093B2, “Lipid co-factor essential for cell density signaling” (priority 2013, dated 2019)

Tested on: U2OS cells
Assay: Growth of U2OS cells after adding concentrated conditioned media or free protein factor
Format: cell-based, human
Conditions: free factor expressed in E. coli added at 5 μg/ml, after a week (6 days), vs control
Method: FIGS. 13A-F—The cofactor has a unique lipid makeup depending on the producing cell type but would SNZR 1P1L and SNZR 1P2L give the same or different response if added to the same cell type. In this case we used the control cell line U2OS and added a 5× concentrated condition medium from PAT cells or from U2OS-pESY1c cells. An additional test was done to see if the free factor made in E. coli had any activity on U2OS cells if applied at a high concentration (5 μg/ml).
To answer these questions, U2OS cells were grown in regular media as a control, or with 5× concentrated condition media from U2OS-pESY1c cells expressing the SNZR 1P1L, and from 5× concentrated condition media from PAT cells expressing SNZR 1P2L. In addition, SNZR 1P purified from E. coli, was added at 5 μg/ml—3 orders of magnitude greater than the estimated level in CM (FIG. 13a,b,c,d). […] The high level of the protein factor was chosen because it seemed unlikely that the factor without the cofactor would have a lot of activity and small amounts of activity are difficult to detect by visualization.
U2OS cells were grown in F12/DMEM medium with 0.2% fetal bovine serum. In 75 cm^2 flasks the medium, […], was changed every other day. When the cells first overgrow the monolayer, they are very sensitive to medium volume and will apoptose if too much medium is added.
CM was produced by growing cells in 225 cm^2 flasks. […]

B1: SNZR 1P: secreted 94 AA cell density signal protein factor (chicken, SEQ ID NO:3; tagged form SEQ ID NO:13) (protein, listed as Gallus gallus)
chain: EPLAVVDLRPQSSVKVEVHFQDKVEEMSIRLDQTVAELKKHLKTVVQLSTSNMLLFYLDQEAPFGPEEMKYSSRALHSYGIRDGDKIYVEPRMK
Effect on growth of U2OS cells: did not appear to change the cultures
Effect on growth of U2OS cells (listed as secreted form of the factor): did not appear to increase growth
